Measured values taken from patent US7612044.

Columns and labels:
[1] = target: T1, HLA-A2.1 (heavy chain with human beta 2-microglobulin) (human); assay: competition with 5 nM radiolabeled HBc18-27 for HLA-A2.1 + b2m, gel filtration
[2] = target: T1, HLA-A2.1 (heavy chain with human beta …); assay: competition with radiolabeled HBc18-27 for soluble HLA-A2.1 + b2m, gel filtration
[3] = target: T1, HLA-A2.1 (heavy chain with human beta …); assay: IC50 of standard HBc18-27 peptide ([…] nM) / IC50 of sample peptide, same competition assay

Row | Binder | IC50 [1] | IC50 [2] | Ratio to Standard [3]
1 | FLWGQYWQV (modifications not checked) [G9-154-1F2L] | 2.6 nM | – | –
2 | YTWGQYWQV (modifications not checked) [G9-154-1Y] | 2.5 nM | – | –
3 | ATWGQYWQV (modifications not checked) [G9-154-1A] | 5.2 nM | – | –
4 | ALWGQYWQV (modifications not checked) [G9-154-1A2L] | 2.3 nM | – | –
5 | KLWGQYWQV (modifications not checked) [G9-154-2L] | 2 nM | – | –
6 | FTWGQYWQV (modifications not checked) [G9-154-1F] | 1.6 nM | – | –
7 | WLWGQYWQV (modifications not checked) [G9-154-1W2L] | 2.8 nM | – | –
8 | WTWGQYWQV (modifications not checked) [G9-154-1W] | 60 nM | – | –
9 | LLWGQYWQV (modifications not checked) [G9-154-1L2L] | 1.6 nM | – | –
10 | KTFGQYWQV (modifications not checked) [G9-154-3F] | 21 nM | – | –
11 | KIWGQYWQV (modifications not checked) [G9-154-2I] | 3 nM | – | –
12 | LTWGQYWQV (modifications not checked) [G9-154-1L] | 3.4 nM | – | –
13 | KMWGQYWQV (modifications not checked) [G9-154-2M] | 6.5 nM | – | –
14 | YLWGQYWQV (modifications not checked) [G9-154-1Y2L] | 1.7 nM | – | –

Second part, the binder after the results:

Row | IC50 [1] | IC50 [2] | Ratio to Standard [3] | Binder
15 | – | 483 nM | 0.01 | LLDGTATLRL (modifications not checked) [gp100 peptide G10-4]
16 | – | 40 nM | 0.13 | YMNGTMSQV (modifications not checked) [tyrosinase peptide T9369]
17 | 20 nM | – | – | ILSQVPFSV (modifications not checked) [G9-209-2L3S]
18 | 5 nM | – | – | ILYQVPFSV (modifications not checked) [G9-209-2L3Y]
19 | 40 nM | – | – | ITMQVPFSV (modifications not checked) [G9-209-3M]
20 | – | 13 nM | 0.38 | VLYRYGSFSV (modifications not checked) [gp100 peptide G10-5]
21 | 30 nM | – | – | KTYGQYWQV (modifications not checked) [G9-154-3Y]
